Laboratory results from patent US20230203131A1 (OSAKA UNIVERSITY, published 2023).

Assays:
[1] = molecular target: Perlecan-fused Chimera-511 (Chimera-511P), not treated with thrombin (human) (UniProt P02675); assay: solid-phase integrin binding assay (ELISA): Chimera-511P coated, α6β1 integrin titrated, as in Example 1 (5)
α6β1 integrin [2] = molecular target: T1, α6β1 integrin (UniProt P23229 24-1011; P05556 21-728); assay: solid-phase integrin binding assay (ELISA): Chimera-511 coated at 10 nM, α6β1 integrin titrated 0.001-100 nM in 1 mM MnCl2
T1 construct: Soluble protein added to plates and detected with a biotin-labeled Velcro antibody
T1 sequence (P23229 other isoform, or with tags, fused parts or gaps, chain 1 of 2): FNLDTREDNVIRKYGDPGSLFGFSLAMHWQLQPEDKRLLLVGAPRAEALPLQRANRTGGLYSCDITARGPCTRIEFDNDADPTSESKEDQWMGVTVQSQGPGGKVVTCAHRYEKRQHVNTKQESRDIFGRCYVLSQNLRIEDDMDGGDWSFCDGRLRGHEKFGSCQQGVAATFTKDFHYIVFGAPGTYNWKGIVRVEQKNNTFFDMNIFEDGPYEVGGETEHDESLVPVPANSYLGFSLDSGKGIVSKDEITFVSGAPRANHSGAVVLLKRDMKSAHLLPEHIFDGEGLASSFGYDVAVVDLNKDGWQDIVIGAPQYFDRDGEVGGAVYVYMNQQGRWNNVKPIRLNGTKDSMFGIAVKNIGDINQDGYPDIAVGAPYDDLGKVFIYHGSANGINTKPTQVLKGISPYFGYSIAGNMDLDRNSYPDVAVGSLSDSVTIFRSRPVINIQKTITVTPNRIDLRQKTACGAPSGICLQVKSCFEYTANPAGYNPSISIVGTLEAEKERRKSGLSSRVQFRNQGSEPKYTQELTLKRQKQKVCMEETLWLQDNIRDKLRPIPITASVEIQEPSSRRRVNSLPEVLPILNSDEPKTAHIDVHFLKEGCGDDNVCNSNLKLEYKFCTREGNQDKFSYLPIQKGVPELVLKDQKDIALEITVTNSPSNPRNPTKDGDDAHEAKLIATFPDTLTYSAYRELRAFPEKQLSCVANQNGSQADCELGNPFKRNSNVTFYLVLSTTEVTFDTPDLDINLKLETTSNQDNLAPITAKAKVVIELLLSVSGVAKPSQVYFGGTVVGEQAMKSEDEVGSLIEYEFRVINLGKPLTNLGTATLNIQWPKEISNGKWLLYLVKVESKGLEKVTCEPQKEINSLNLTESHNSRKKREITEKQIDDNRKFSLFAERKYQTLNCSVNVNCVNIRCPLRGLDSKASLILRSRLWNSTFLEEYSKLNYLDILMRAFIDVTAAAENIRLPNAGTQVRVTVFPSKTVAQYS
T1 sequence (P05556 21-728, chain 2 of 2): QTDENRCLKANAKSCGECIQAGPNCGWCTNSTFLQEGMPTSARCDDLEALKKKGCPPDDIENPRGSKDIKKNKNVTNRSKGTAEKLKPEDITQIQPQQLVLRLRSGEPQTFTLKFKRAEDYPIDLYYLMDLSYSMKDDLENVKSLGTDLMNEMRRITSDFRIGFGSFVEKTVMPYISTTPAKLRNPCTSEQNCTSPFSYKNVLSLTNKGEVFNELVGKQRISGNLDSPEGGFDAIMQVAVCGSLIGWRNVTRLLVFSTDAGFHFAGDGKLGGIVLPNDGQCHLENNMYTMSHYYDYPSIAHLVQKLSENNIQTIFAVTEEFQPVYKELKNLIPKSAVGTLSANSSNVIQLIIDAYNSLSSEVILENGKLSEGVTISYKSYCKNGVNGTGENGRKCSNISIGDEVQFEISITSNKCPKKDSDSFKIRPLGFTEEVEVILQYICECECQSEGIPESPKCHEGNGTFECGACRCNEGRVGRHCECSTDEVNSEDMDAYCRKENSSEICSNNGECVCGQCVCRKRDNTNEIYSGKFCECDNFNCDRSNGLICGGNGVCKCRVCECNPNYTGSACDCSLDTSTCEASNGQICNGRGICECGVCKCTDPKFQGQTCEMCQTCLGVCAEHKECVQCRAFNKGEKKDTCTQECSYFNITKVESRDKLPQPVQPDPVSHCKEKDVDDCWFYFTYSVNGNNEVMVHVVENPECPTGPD
Method: (§1) The plates were incubated with gentle agitation at 4° C. overnight for coating.
(§2) Integrin binding assay was performed according to the method of Ido et al. (Hiroyuki Ido et al. J. Biol. Chem., 282, 11144-11154, 2007). The specific procedure was as follows. […] Next, TBST supplemented with 1% BSA was added at 200 μL/well, and the plates were incubated with agitation on a shaker (B. Braun Biotech International CERTOMAT MT) at room temperature for 1 hour for blocking. The plates were washed once with 200 μL/well of 0.1% BSA/TBST. α6β1 integrin was diluted to final concentrations of 0.001 nM, 0.003 nM, 0.01 nM, 0.03 nM, 0.1 nM, 0.3 nM, 1 nM, 3 nM, 10 nM, 30 nM, and 100 nM in 0.1% BSA/TBST containing 1 mM MnCl₂ or 10 mM EDTA. The diluted α6β1 integrin solutions were added to the plates at 50 μL/well and allowed to react with agitation using the shaker at room temperature for 3 hours.
(§3) After the reaction, the plates were washed three times with 200 μL/well of 1 mM MnCl₂/0.1% BSA/TBST or 10 mM EDTA/0.1% BSA/TBST. A 1.5 μg/mL solution of a biotin-labeled Velcro antibody (prepared as described in Takagi, J., Erickson, H. P. and Springer, T. A. (2001) Nat. Struct. Biol. 8, 412-416) in 1 mM MnCl₂/0.1% BSA/TBST was added at 50 μL/well and allowed to react with agitation using the shaker at room temperature for 30 minutes. […]

α6β1 integrin [3] = molecular target: T1, α6β1 integrin; assay: solid-phase integrin binding assay (ELISA): LM511E8 coated at 10 nM, α6β1 integrin titrated 0.001-100 nM in 1 mM MnCl2
Method: as §1, §2, §3

Molecule: α6β1 integrin (from UniProt P23229 24-1011; P05556 21-728) (receptor)
- Kd [1]: 900 pM

B1: Chimera-511 (chimeric protein having human fibrinogen fused to an integrin-binding domain of human laminin 511), not treated with thrombin (other)
chain 1: QGVNDNEEGFFSARGHRPLDKKREEAPSLRPAPPPISGGGYRARPAKAAATQKKVERKAPDAGGCLHADPDLGVLCPTGCQLQEALLQQERPIRNSVDELNNNVEAVSQTSSSSFQYMYLLKDLWQKRQKQVKDNENVVNEYSSELEKHQLYIDETVNSNIPTNIGRVRELIAQARGAASKVKVPMKFNGRSGVQLRTPRDLADLAAYTALKFYLQGPEPEPGQGTEDRFVMYMGSRQATGDYMGVSLRDKKVHWVYQLGEAGPAVLSIDEDIGEQFAAVSLDRTLQFGHMSVTVERQMIQETKGDTVAPGAEGLLNLRPDDFVFYVGGYPSTFTPPPLLRFPGYRGCIEMDTLNEEVVSLYNFERTFQLDTAVDRPCARSKSTGDPWLTDGSYLDGTGFARISFDSQISTTKRFEQELRLVSYSGVLFFLKQQSQFLCLAVQEGSLVLLYDFGAGLKKAVPLQPPPPLTSASKAIQVFLLGGSRKRVLVRVERATVYSVEQDNDLELADAYYLGGVPPDQLPPSLRRLFPTGGSVRGCVKGIKALGKYVDLKRLNTTGVSAGCTADLLVGRAMTFHGHGFLRLALSNVAPLTGNVYSGFGFHSAQDSALLYYRASPDGLCQVSLQQGRVSLQLLRTEVKTQAGFADGAPHYVAFYSNATGVWLYVDDQLQQMKPHRGPPPELQPQPEGPPRLLLGGLPESGTIYNFSGCISNVFVQRLLGPQRVFDLQQNLGSVNVSTGCAPALQAQTPGLGPRGLQAHHHHHHHHHH
chain 2: ADSGEGDFLAEGGGVRGPRVVERHQSACKDSDWPFCSDEDWNYKCPSGCRMKGLIDEVNQDFTNRINKLKNSLFEYQKNNKDSHSLTTNIMEILRGDFSSANNRDNTYNRVSEDLRSRIEVLKRKVIEKVQHLARLEGEVRSLLKDISQKVAVYSTCL
chain 3: YVATRDNCCILDERFGSYCPTTCGIADFLSTYQTKVDKDLQSLEDILHQVENKTSEVKQLIKAIQLTYNPDESSKPNMIDAATLKSRKMLEEIMKYEASILTHDSSIEEIMKDIRNLEDIRKTLPSGCFNTPSIEKP
notes: range 31-194;range 2716-3310;range 20-151;range 1761-1786;range 27-132;range 1579-1609; Chains in order: Chimera-α5, Chimera-β1, Chimera-γ1; also called Combination-3
- Kd (α6β1 integrin [2]): 580 pM

B2: Human laminin 511E8 fragment (human laminin α5β1γ1E8) (other)
chain 1: HHHHHHAAEDAAGQALQQADHTWATVVRQGLVDRAQQLLANSTALEEAMLQEQQRLGLVWAALQGARTQLRDVRAKKDQLEAHIQAAQAMLAMDTDETSKKIAHAKAVAAEAQDTATRVQSQLQAMQENVERWQGQYEGLRGQDLGQAVLDAGHSVSTLEKTLPQLLAKLSILENRGVHNASLALSASIGRVRELIAQARGAASKVKVPMKFNGRSGVQLRTPRDLADLAAYTALKFYLQGPEPEPGQGTEDRFVMYMGSRQATGDYMGVSLRDKKVHWVYQLGEAGPAVLSIDEDIGEQFAAVSLDRTLQFGHMSVTVERQMIQETKGDTVAPGAEGLLNLRPDDFVFYVGGYPSTFTPPPLLRFPGYRGCIEMDTLNEEVVSLYNFERTFQLDTAVDRPCARSKSTGDPWLTDGSYLDGTGFARISFDSQISTTKRFEQELRLVSYSGVLFFLKQQSQFLCLAVQEGSLVLLYDFGAGLKKAVPLQPPPPLTSASKAIQVFLLGGSRKRVLVRVERATVYSVEQDNDLELADAYYLGGVPPDQLPPSLRRLFPTGGSVRGCVKGIKALGKYVDLKRLNTTGVSAGCTADLLVGRAMTFHGHGFLRLALSNVAPLTGNVYSGFGFHSAQDSALLYYRASPDGLCQVSLQQGRVSLQLLRTEVKTQAGFADGAPHYVAFYSNATGVWLYVDDQLQQMKPHRGPPPELQPQPEGPPRLLLGGLPESGTIYNFSGCISNVFVQRLLGPQRVFDLQQNLGSVNVSTGCAPALQAQTPGLGPRGLQATARKASRRSRQPARHPA
chain 2: LQHSAADIARAEMLLEEAKRASKSATDVKVTADMVKEALEEAEKAQVAAEKAIKQADEDIQGTQNLLTSIESETAASEETLFNASQRISELERNVEELKRKAAQNSGEAEYIEKVVYTVKQSAEDVKKTLDGELDEKYKKVENLIAKKTEESADARRKAEMLQNEAKTLLAQANSKLQLLKDLERKYEDNQRYLEDKAQELARLEGEVRSLLKDISQKVAVYSTCL
chain 3: EANDILNNLKDFDRRVNDNKTAAEEALRKIPAINQTITEANEKTREAQQALGSAAADATEAKNKAHEAERIASAVQKNATSTKAEAERTFAEVTDLDNEVNNMLKQLQEAEKELKRKQDDADQDMMMAGMASQAAQEAEINARKAKNSVTSLLSIINDLLEQLGQLDTVDLNKLNEIEGTLNKAKDEMKVSDLDRKVSDLENEAKKQEAAIMDYNRDIEEIMKDIRNLEDIRKTLPSGCFNTPSIEKP
notes: range 2534-3327;range 1561-1786;range 1362-1609; Heterotrimer of α5E8, β1E8 and γ1E8, expressed in 293-F cells; also called LM511E8; LM511 E8; not shown: HA tag, N-terminal; FLAG tag, N-terminal
- Kd (α6β1 integrin [3]): 590 pM
